* marks the point of attachment. αGalNAc = CC(=O)N[C@@H]1[C@@H](O)[C@@H](O)[C@@H](CO)O[C@@H]1*
T1: A-MUC2 (SMILES …)
T1 construct: also called Ac-PT*TTPLK-NH2
T1 peptide: Ac-PT(αGalNAc)TTPLK-NH2

T2: B-MUC2 (SMILES …)
T2 construct: also called Ac-PTT*TPLK-NH2
T2 peptide: Ac-PTT(αGalNAc)TPLK-NH2

T3: C-MUC2 (SMILES …)
T3 construct: also called Ac-PTTT*PLK-NH2
T3 peptide: Ac-PTTT(αGalNAc)PLK-NH2

T4: D-MUC2 (SMILES …)
T4 construct: also called Ac-PT*T*TPLK-NH2
T4 peptide: Ac-PT(αGalNAc)T(αGalNAc)TPLK-NH2

T5: E-MUC2 (SMILES …)
T5 construct: also called Ac-PT*TT*PLK-NH2
T5 peptide: Ac-PT(αGalNAc)TT(αGalNAc)PLK-NH2

T6: F-MUC2 (SMILES …)
T6 construct: also called Ac-PTT*T*PLK-NH2
T6 peptide: Ac-PTT(αGalNAc)T(αGalNAc)PLK-NH2

T7: G-MUC2 (SMILES …)
T7 construct: also called Ac-PT*T*T*PLK-NH2
T7 peptide: Ac-PT(αGalNAc)T(αGalNAc)T(αGalNAc)PLK-NH2

T8: a-Dystroglycan peptide (no Tn)
T8 construct: Unmodified control of the a-Dystroglycan glycopeptide
T8 peptide: Ac-PPTTTTKKP-NH2

T9: MUC5AC (SMILES …)
T9 peptide: H-GTTPSPVPT(αGalNAc)TSTTSAP-OH

T10: EA2 (SMILES …)
T10 construct: also called Ac-PTTDSTT*PAPTTK-NH2
T10 peptide: Ac-PTTDSTT(αGalNAc)PAPTTK-NH2

T11: EA2-R
T11 peptide: Ac-PTTDSTTPAPTTK-NH2

T12: a-Dystroglycan glycopeptide (four Tn) (SMILES …)
T12 construct: also called Ac-PPT*T*T*T*KKP-HN2
T12 peptide: Ac-PPT(αGalNAc)T(αGalNAc)T(αGalNAc)T(αGalNAc)KKP-NH2

T13: MUC1-1 (SMILES …)
T13 construct: also called H2N-TSAPDT*RDAP-NH2
T13 peptide: H-TSAPDT(αGalNAc)RDAP-NH2

T14: MUC1-1R
T14 peptide: H-TSAPDTRDAP-NH2

T15: MUC1-2 (SMILES …)
T15 construct: also called H2N-APGS*T*APP-NH2
T15 peptide: H-APGS(αGalNAc)T(αGalNAc)APP-NH2

T16: MUC1-2R
T16 peptide: H-APGSTAPP-NH2

T17: Peptide-4
T17 construct: also called H2N-KTTT-CONH2
T17 peptide: H-KTTT-NH2

T18: Peptide-5
T18 construct: also called H2N-KTTTG-CONH2
T18 peptide: H-KTTTG-NH2

T19: IgA-Pep02
T19 peptide: H-KPVPSTPPTPSC-OH

T20: IgA-Pep03 (SMILES …)
T20 construct: also called H2N-KPVPS*TPPTPSC-OH
T20 peptide: H-KPVPS(αGalNAc)TPPTPSC-OH

T21: IgA-Pep07
T21 peptide: H-KTPPTPSPSTPC-OH

T22: IgA-Pep08 (SMILES …)
T22 peptide: H-KTPPTPSPST(αGalNAc)PC-OH

T23: IgA-Pep10
T23 peptide: H-KPSPSTPPTPSC-OH

T24: IgA-Pep13 (SMILES …)
T24 construct: also called H2N-KPS*TPPT*PSPSC-OH
T24 peptide: H-KPS(αGalNAc)TPPT(αGalNAc)PSPSC-OH

T25: IgA-Pep16 (SMILES …)
T25 peptide: H-KPSTPPTPS(αGalNAc)PSC-OH

T26: IgA-Pep18 (SMILES …)
T26 peptide: H-KPST(αGalNAc)PPTPSPSC-OH

T27: IgA-Pep05
T27 construct: also called IgA-Pep12; IgA-Pep14
T27 peptide: H-KPSTPPTPSPSC-OH


Tests used:
A-MUC2 = target: T1, A-MUC2; test: glycopeptide microarray, antibody at 50 ug/mL
Method: (§1) With concentrations adjusted to 100 μM in printing buffer (300 mM sodium phosphates, pH 8.5), 0.33 nL of each solution was spotted using a piezoelectric printer. The microarray was printed in spot replicates of 6. Arrays were interrogated with monoclonal anti-Tn antibodies 2F3 parent, 2F3V variant 6, or 2F3 variant 17-2 and detected with fluorescently labeled secondary antibodies and streptavidin as noted. Scanning and quantification were performed with ProScanArray scanner and ScanArray Express software (Perkin-Elmer). The assay examined a panel of ˜50 Tn glycopeptides and addressed whether spacing, number of Tn modifications, specific residues modified, or sequence context contributed to the specificity of binding by 2F3. […] Ser-Tn near free termini and multiple Ser-Tn in a single peptide increased binding. Using the 2F3 parent antibody (“parent”), Variant 6 and Variant 17, the binding of the antibodies to a panel of different glycoproteins was assayed to determine the preferred Tn context recognized by 2F3 and the 2F3G1 variants. […] Importantly, modification to Thr residues gave rise to little to no binding. […] Furthermore, binding was observed not only to peptides that contained Ser-Tn, but specifically those that were at least 5 amino acids from the attachment point to the solid matrix. Ser-Tn near free termini and multiple Ser-Tn in a single peptide increased binding.
(§2) The antibodies were applied to glycopeptide arrays at a concentration of 5 ug/mL (no data shown form this group) or 50 ug/mL (data shown in bar chart and in the table 9).

B-MUC2 = target: T2, B-MUC2; test: glycopeptide microarray, antibody at 50 ug/mL
Method: as §1, §2

C-MUC2 = target: T3, C-MUC2; test: glycopeptide microarray, antibody at 50 ug/mL
Method: as §1, §2

D-MUC2 = target: T4, D-MUC2; test: glycopeptide microarray, antibody at 50 ug/mL
Method: as §1, §2

E-MUC2 = target: T5, E-MUC2; test: glycopeptide microarray, antibody at 50 ug/mL
Method: as §1, §2

F-MUC2 = target: T6, F-MUC2; test: glycopeptide microarray, antibody at 50 ug/mL
Method: as §1, §2

G-MUC2 = target: T7, G-MUC2; test: glycopeptide microarray, antibody at 50 ug/mL
Method: as §1, §2

[1] = target: T8, a-Dystroglycan peptide (no Tn); test: glycopeptide microarray, antibody at 50 ug/mL
Method: as §1, §2

MUC5AC = target: T9, MUC5AC; test: glycopeptide microarray, antibody at 50 ug/mL
Method: as §1, §2

EA2 = target: T10, EA2; test: glycopeptide microarray, antibody at 50 ug/mL
Method: as §1, §2

EA2-R = target: T11, EA2-R; test: glycopeptide microarray, antibody at 50 ug/mL
Method: as §1, §2

[2] = target: T12, a-Dystroglycan glycopeptide (four Tn); test: glycopeptide microarray, antibody at 50 ug/mL
Method: as §1, §2

MUC1-1 = target: T13, MUC1-1; test: glycopeptide microarray, antibody at 50 ug/mL
Method: as §1, §2

MUC1-1R = target: T14, MUC1-1R; test: glycopeptide microarray, antibody at 50 ug/mL
Method: as §1, §2

MUC1-2 = target: T15, MUC1-2; test: glycopeptide microarray, antibody at 50 ug/mL
Method: as §1, §2

MUC1-2R = target: T16, MUC1-2R; test: glycopeptide microarray, antibody at 50 ug/mL
Method: as §1, §2

Peptide-4 = target: T17, Peptide-4; test: glycopeptide microarray, antibody at 50 ug/mL
Method: as §1, §2

Peptide-5 = target: T18, Peptide-5; test: glycopeptide microarray, antibody at 50 ug/mL
Method: as §1, §2

IgA-Pep02 = target: T19, IgA-Pep02; test: glycopeptide microarray, antibody at 50 ug/mL
Method: as §1, §2

IgA-Pep03 = target: T20, IgA-Pep03; test: glycopeptide microarray, antibody at 50 ug/mL
Method: as §1, §2

IgA-Pep07 = target: T21, IgA-Pep07; test: glycopeptide microarray, antibody at 50 ug/mL
Method: as §1, §2

IgA-Pep08 = target: T22, IgA-Pep08; test: glycopeptide microarray, antibody at 50 ug/mL
Method: as §1, §2

IgA-Pep10 = target: T23, IgA-Pep10; test: glycopeptide microarray, antibody at 50 ug/mL
Method: as §1, §2

IgA-Pep13 = target: T24, IgA-Pep13; test: glycopeptide microarray, antibody at 50 ug/mL
Method: as §1, §2

IgA-Pep16 = target: T25, IgA-Pep16; test: glycopeptide microarray, antibody at 50 ug/mL
Method: as §1, §2

IgA-Pep18 = target: T26, IgA-Pep18; test: glycopeptide microarray, antibody at 50 ug/mL
Method: as §1, §2

IgA-Pep05 [3] = target: T27, IgA-Pep05; test: glycopeptide microarray, antibody at 50 ug/mL; spot IgA-Pep05
Method: as §1, §2

IgA-Pep05 [4] = target: T27, IgA-Pep05; test: glycopeptide microarray, antibody at 50 ug/mL; spot IgA-Pep12
Method: as §1, §2

IgA-Pep05 [5] = target: T27, IgA-Pep05; test: glycopeptide microarray, antibody at 50 ug/mL; spot IgA-Pep14
Method: as §1, §2

Row | Binder | RLU (A-MUC2) | RLU (C-MUC2) | RLU (E-MUC2) | RLU (F-MUC2) | RLU (G-MUC2) | RLU [1] | RLU (MUC5AC) | RLU (EA2) | RLU (EA2-R) | RLU [2] | RLU (MUC1-1) | RLU (MUC1-1R) | RLU (MUC1-2R) | RLU (Peptide-4) | RLU (Peptide-5) | RLU (IgA-Pep02) | RLU (IgA-Pep07) | RLU (IgA-Pep08) | RLU (IgA-Pep10) | RLU (IgA-Pep18) | other results
1 | 2F3 parent antibody (antibody, V domains shown, Only variable domains are used here; V genes were cloned into human IgG1 (or IgG3)/kappa; also called 2F3 Original; original 2F3 parent) VH: QITLRESGGGLVQPGGSLRLSCAASGFTFDSYAMSWVRQAPGKGLEWVSAISGSGDSTYYADSVKGRFSISRDNSKNTLYLQMNSLRAEDTAVYYCAIRREYSGYAPFDYWGQGTLVTVSS VL: DIVMTQTPSSLSASVGDRVTITCRASQGISSWLAWYQQKPEKAPRSLIYAASSLQSGVPSRFSGSGSGTDFTLTISSLQPEDFATYYCQQYISYPYTFGQGTKLEIK | 45 RLU | 9 RLU | 8 RLU | 11 RLU | 10 RLU | 37 RLU | 23 RLU | 11 RLU | 15 RLU | 24 RLU | 11 RLU | 7 RLU | 4 RLU | 7 RLU | 10 RLU | 26 RLU | 20 RLU | 22 RLU | 19 RLU | 16 RLU | RLU (B-MUC2): 19 RLU; RLU (D-MUC2): 12 RLU; RLU (MUC1-2): 33 RLU; RLU (IgA-Pep03): 58 RLU; RLU (IgA-Pep13): 40 RLU; RLU (IgA-Pep16): 115 RLU; RLU (IgA-Pep05 [3]): 28 RLU; RLU (IgA-Pep05 [4]): 20 RLU; RLU (IgA-Pep05 [5]): 43 RLU
2 | 2F3 variant #6 (antibody, IgG1, V domains shown, Mutant heavy chain in an IgG expression vector, co-expressed with the wild type 2F3 light chain (IgG1, kappa); also called 2F3#6; clone 6) VH: QVQLLESGGGLVQPGGSLRLSCAASGFTFDSYAMSWVRQAPGKGLEWVSAISGSGASTYYADSVKGRFSISRDNSKNTLYLQMNSLRAEDTAVYYCAIRREYSGYAPFDYWGQGTLVIVSS VL: DIVMTQTPSSLSASVGDRVTITCRASQGISSWLAWYQQKPEKAPRSLIYAASSLQSGVPSRFSGSGSGTDFTLTISSLQPEDFATYYCQQYISYPYTFGQGTKLEIK | 55 RLU | 22 RLU | 27 RLU | 54 RLU | -39 RLU | -4 RLU | -14 RLU | 18 RLU | 45 RLU | 28 RLU | 14 RLU | 7 RLU | 0 RLU | 31 RLU | -6 RLU | 35 RLU | 30 RLU | -6 RLU | -127 RLU | 22 RLU | RLU (B-MUC2): 23 RLU; RLU (D-MUC2): 12 RLU; RLU (MUC1-2): 59 RLU; RLU (IgA-Pep05 [3]): 60 RLU; RLU (IgA-Pep05 [4]): 83 RLU; RLU (IgA-Pep05 [5]): 38 RLU
3 | 2F3 variant #17v2 (antibody, IgG1, V domains shown, IgG1, kappa, wild type 2F3 light chain; also called 2F3#17V2; 2F3#17v2) VH: QITLRESGGGLVQPGGSLRLSCAASGFTFDSYAMSWVRQAPGKGLEWVSAISGSGHSTYYADSVKGRFSISRDNSKNTLYLQMNNLRAEDTAVYYCAIRREYSGYAPFDYWGQGTLVTVSS VL: DIVMTQTPSSLSASVGDRVTITCRASQGISSWLAWYQQKPEKAPRSLIYAASSLQSGVPSRFSGSGSGTDFTLTISSLQPEDFATYYCQQYISYPYTFGQGTKLEIK | 65 RLU | 30 RLU | 87 RLU | 70 RLU | 51 RLU | 86 RLU | 87 RLU | 16 RLU | 29 RLU | 51 RLU | 61 RLU | 19 RLU | 6 RLU | 33 RLU | 41 RLU | 75 RLU | 144 RLU | 282 RLU | 125 RLU | 174 RLU | RLU (IgA-Pep05 [3]): 149 RLU; RLU (IgA-Pep05 [4]): 457 RLU; RLU (IgA-Pep05 [5]): 112 RLU

Source: patent US20190111164A1 (Boehringer Ingelheim, published 2019)
